Results on 32 variants are retold here after the RNAGym collection of RNA variant scans (doi:10.7554/elife.80360).

The labels stand for the following.
B1: HDV Ribozyme (parent)
chain: GGCCGGCAUGGUCCCAGCCUCCUCGCUGGCGCCGGCUGGGCAACAUUCCGAGGGGACCGUCCCCUCGGUAAUGGCGAAUGGGACCCA

Variants of B1 are the subject of this series. Kind of series: self-cleavage, relative activity (ratio to wild type); higher = more cleavage; co-transcriptional.
As for GGCCGGCACGGUCCCAGCCUCCUCGCUGGCGCCGGCUGGGCAACAUUCCGAGGGGACCGUCCCCUCGGUCAUGGCGAAUGGGACCCA, the self-cleavage amounted to 0.997.
On to GGCCGGCAUGGUCCCAGGCUCCUCGCUGGCGCCGGCUGGGCAACAUUCCGAGGGGACCGUCCCCUCGGUAAGGGCGAAUGGGACCCA, for which the self-cleavage is 0.
In the case of GGCCGGCAUGGUCCCAGCCUCCUCGCUGGCGCCGGCUCGGCAACAUUCCGAGGGGACCGUCCCCUUGGUAAUGGCGAAUGGGACCCA, the self-cleavage was 0.153.
For GGCCGGCAUGGUCCCAGCCUACUCGCUGGCGCCGGCUGGGCAACAUUCCGAGGGGACCGUCCCCUCGGUAAUGGCGAAUGGGACCUA, the self-cleavage was found to be 0.0308.
As for GGCCGGCAUGGUCCCAGCCUCCUCGCUGGCGCCGGCUGGGCAACAUUCCGAGGGGACCGUCCCCUCGGUCAUGGCGAAUGGGACCCG, the figure is 0.858.
As for GGCCGGCAUGGUCCCAGCCUCCUCGCUGGCGCAGGCUGGGCAACAUUCCGAGGGGACCGUCCCCUCGGCAAUGGCGAAUGGGACCCA, the figure is 0.342.
Under GGCCGGUAUGGUCCCAGCCUGCUCGCUGGCGCCGGCUGGGCAACAUUCCGAGGGGACCGUCCCCUCGGUAAUGGCGAAUGGGACCCA stands 0.0739.
Turning to GGCCGGCAUGGUCCCAGCCUCCUCGCUGGCGCCGGCUGGGCAUCAUUCCGAGGCGACCGUCCCCUCGGUAAUGGCGAAUGGGACCCA, the self-cleavage amounted to 0.196.
Under GGCCGGCAUGGUCCCAGCCUCCUCGCUGGCGCCGGCUGGGCAACAUUCCGAGGGGACCGGCCCCUCGGUAAUGGCGAAUGGGACCAA stands 1.01; under GGCCGGCAUGGUCCCAGCCUCCUCGCUGGCGCCUGCUGGGCAACAUUCCGAGGGGACCGUCCCCUCGGUAAUGGCGAAUGGGGCCCA, 0.169; under GGCCGGAAUGGUCCCAGCCUCCUCGCUGGCGCCGGCUGGGCAACAUUCCGACGGGACCGUCCCCUCGGUAAUGGCGAAUGGGACCCA, 0.482.
Under GGCCGGCAUGGUCACAGCCUCCUCGCUGGCGCCGGCUGGGCAACAUUCGGAGGGGACCGUCCCCUCGGUAAUGGCGAAUGGGACCCA stands 0.101; under GGCCGGCAUGGUGCCAGCCUCCUCGCUGGCGCCGGCUGGGCAACAUUCCGAGGGGACCGUCCCCUCGGUAAUGGCGAAUGGGGCCCA, 0.0361.
As to GGCCGGCAUGGUCCCAGCCUCCUCGCUGGCGCCGGCUGGGCAACAUUCCGAGGGGACCGUCCCCUUGGUAAGGGCGAAUGGGACCCA, the self-cleavage worked out at 0.582.
As for GGCCGGCAUGGUCCCAGCCUCCUCGCUGGCGGCGGCUGGGCAACAUUCCGAGGGGACCGUCCCCUGGGUAAUGGCGAAUGGGACCCA, the figure is 0.0583; as for GGCCGGCAUGGUCCCAGCCUCCUCGCUGGGGCCGGCUGGGCAACAUUCCGAGGGGACCGUCCCAUCGGUAAUGGCGAAUGGGACCCA, 0.0361.
Turning to GGCCGGCAUGGUCCCAGCCUCCUCGCUGUCGCCGGCUGGGCAACAUUCCGAGGGGACCGUCCCCUCCGUAAUGGCGAAUGGGACCCA, the self-cleavage worked out at 0.136.
As for GGCCGGCAUGGUCCCAGCCUCCUCGCUGGCGCCGGCUGGGCAACAUUCCGAGGGGACCGUCCUCUCGGUUAUGGCGAAUGGGACCCA, the figure is 0.848; as for GGCCGGCAUGGUCCCAGCCUCCUCCCAGGCGCCGGCUGGGCAACAUUCCGAGGGGACCGUCCCCUCGGUAAUGGCGAAUGGGACCCA, 0.175.
With GGCCGGCAUGGUCCCAGCCUCCUCGCUGGCGCCGGCUGGGCAACAUUUCGAGGGGACCGUCCCCUCUGUAAUGGCGAAUGGGACCCA, the self-cleavage amounted to 1.27.
In the case of GGCCGGCAUGGUCCCAGCCUCCUCGCUGGCGCCGGCGGGGCAACAUUCCGAGGGUACCGUCCCCUCGGUAAUGGCGAAUGGGACCCA, the self-cleavage is 0.214.
Under GGCCGGCAUGCUCACAGCCUCCUCGCUGGCGCCGGCUGGGCAACAUUCCGAGGGGACCGUCCCCUCGGUAAUGGCGAAUGGGACCCA stands 0.106; under GGCCGGCAUGGUCCCAGCCUCCUCGCUGGCGCCGGCUGGGCAACAUUCCGAGGGGACUGUCCACUCGGUAAUGGCGAAUGGGACCCA, 0.986.
As for GGCCGGCAUGGUCCCAGCUUCCUCGCUGGCGCCGGCUGGGCAACAUUCCGAGGGGACCGUCCCCUCGGUAAUGGCGACUGGGACCCA, the figure is 0.172; as for GGCCGGCAUUGUCCCAGCCUCCUCGCUGGCGCCGGCUGGGCAACAUUCAGAGGGGACCGUCCCCUCGGUAAUGGCGAAUGGGACCCA, 0.554; as for GGCCGGCAUGGUCCCAGCCUCCUCGCUGGCGCCGGCUGGGCAACAUUCCGAGGGGACCGUCCCCACGGUAAUCGCGAAUGGGACCCA, 0.415.
As for GGCCGGCAUGGUCCCAGCCUCCUCGCUGGCGCCGGCUGAGCAACAUUUCGAGGGGACCGUCCCCUCGGUAAUGGCGAAUGGGACCCA, the figure is 0.504; as for GGCCGGCAUGGUCCCAGCCUCCUCGCAGGCGCCGGCUGGGCAACAUUCCGAGGGUACCGUCCCCUCGGUAAUGGCGAAUGGGACCCA, 1.14; as for GGCCGGCAUGGUCCCAGCCACCUCGCUGGCGCCGGCUGGGCAAUAUUCCGAGGGGACCGUCCCCUCGGUAAUGGCGAAUGGGACCCA, 0.
For the variant GGCCGGCAUGGUCCCAGCCUCCGCGCUGGCGCCCGCUGGGCAACAUUCCGAGGGGACCGUCCCCUCGGUAAUGGCGAAUGGGACCCA, the self-cleavage is 0.0415.
With GGCCGGCAUGGUCACAGCCUCCUCGGUGGCGCCGGCUGGGCAACAUUCCGAGGGGACCGUCCCCUCGGUAAUGGCGAAUGGGACCCA, the self-cleavage worked out at 0.831.
As for GGCCGGCAUGGUCCCAGCCUCCUCGCUGGCGCCGGAUGGGCAACAUUCCGAGGGGACCGUCCCCUCAGUAAUGGCGAAUGGGACCCA, the figure is 0.126.
